Source: patent US20210079071A1 (published 2021)
Numbering of substitutions follows the chain as printed. Where two headings read alike, the source gives them in different places.

Legend:
[1] = target: vWbp peptide vWbp(1-12), […], unconjugated (Staphylococcus aureus); assay: ELISA, unconjugated peptide
[2] = target: vWbp peptide vWbp(1-12) conjugated to ovalbumin (Staphylococcus aureus); assay: ELISA: purified GMA-2500 on vWbp peptide-ovalbumin, A490
vWbp-(1-263) [3] = target: T1, vWbp-(1-263) (Staphylococcus aureus); assay: ELISA: purified GMA-2500 on the preparation 'vWbp 1-263 022109, RIF 0540E', A490
T1 chain: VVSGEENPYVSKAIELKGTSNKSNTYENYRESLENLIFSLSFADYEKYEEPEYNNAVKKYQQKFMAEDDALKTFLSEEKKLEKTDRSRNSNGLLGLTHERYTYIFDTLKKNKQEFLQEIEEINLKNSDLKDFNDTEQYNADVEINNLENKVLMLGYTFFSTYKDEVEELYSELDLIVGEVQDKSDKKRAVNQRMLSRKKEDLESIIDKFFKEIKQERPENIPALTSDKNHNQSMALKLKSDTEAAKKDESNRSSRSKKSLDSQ

vWbp-(1-263) [4] = target: T1, vWbp-(1-263); assay: ELISA: purified GMA-2500 on the preparation 'vWbp 1-263 WT 011113, RIF0540D', A490
[5] = target: T2, BODIPY-labeled staphylocoagulase SC (S7C)(1-325) (Staphylococcus aureus, UniProt P17855 27-351)
T2 sequence: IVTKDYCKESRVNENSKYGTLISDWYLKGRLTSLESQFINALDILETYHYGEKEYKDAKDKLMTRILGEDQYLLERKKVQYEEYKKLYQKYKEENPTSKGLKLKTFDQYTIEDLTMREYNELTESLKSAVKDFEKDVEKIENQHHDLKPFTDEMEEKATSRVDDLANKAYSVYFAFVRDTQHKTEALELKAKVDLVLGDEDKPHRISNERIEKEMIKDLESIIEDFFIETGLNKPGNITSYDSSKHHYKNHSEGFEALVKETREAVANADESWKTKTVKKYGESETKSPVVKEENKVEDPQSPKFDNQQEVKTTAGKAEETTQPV

[6] = target: T3, Staphylocoagulase fragment SC(1-246), unlabeled (Staphylococcus aureus, UniProt P17855 27-272)
T3 sequence: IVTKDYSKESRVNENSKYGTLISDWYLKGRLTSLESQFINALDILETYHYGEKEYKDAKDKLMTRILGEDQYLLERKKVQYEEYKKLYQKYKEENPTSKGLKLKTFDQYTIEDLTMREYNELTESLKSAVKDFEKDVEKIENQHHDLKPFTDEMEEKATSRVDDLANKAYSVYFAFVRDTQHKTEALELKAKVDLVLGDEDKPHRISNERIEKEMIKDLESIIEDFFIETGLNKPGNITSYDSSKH

[7] = target: Mutated Peptide Ala 8 & 9 (Staphylococcus aureus); assay: solid phase competitive inhibition ELISA
Mutated Peptide Ala 8 = Mutated Peptide Ala 8 (Staphylococcus aureus); assay: solid phase competitive inhibition ELISA
Mutated Peptide Ala 9 = Mutated Peptide Ala 9 (Staphylococcus aureus); assay: solid phase competitive inhibition ELISA
[8] = target: T2, BODIPY-labeled staphylocoagulase SC …; assay: fluorescence titration of BODIPY-SC(S7C)(1-325) with GMA-2105
[9] = target: T2, BODIPY-labeled staphylocoagulase SC …; assay: equilibrium titration in solution, increase in BODIPY fluorescence
vWbp-(1-474) = target: T4, vWbp-(1-474) (Staphylococcus aureus); assay: Western blot of recombinant proteins, probed with GMA-2105
T4 chain: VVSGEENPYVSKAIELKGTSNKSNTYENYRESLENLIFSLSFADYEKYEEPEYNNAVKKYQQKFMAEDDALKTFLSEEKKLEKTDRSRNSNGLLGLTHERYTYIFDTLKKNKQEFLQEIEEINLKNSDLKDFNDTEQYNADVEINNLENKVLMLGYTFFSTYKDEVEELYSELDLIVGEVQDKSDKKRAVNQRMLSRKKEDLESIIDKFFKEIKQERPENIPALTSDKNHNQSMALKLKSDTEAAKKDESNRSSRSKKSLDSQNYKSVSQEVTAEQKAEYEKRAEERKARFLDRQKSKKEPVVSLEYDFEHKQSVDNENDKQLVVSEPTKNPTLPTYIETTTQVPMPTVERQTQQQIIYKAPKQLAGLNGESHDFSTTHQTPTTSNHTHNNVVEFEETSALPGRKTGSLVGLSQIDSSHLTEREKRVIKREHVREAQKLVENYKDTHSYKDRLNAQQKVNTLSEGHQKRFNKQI

vWbp-(1-263) [10] = target: T1, vWbp-(1-263); assay: as above
[11] = target: T2, BODIPY-labeled staphylocoagulase SC …; assay: fit of the fluorescence titrations; row 'Probe SC(1-246) S7C-BodipyFL'
[12] = target: T2, BODIPY-labeled staphylocoagulase SC …; assay: equilibrium titration in solution, increase in BODIPY fluorescence, quadratic binding equation
[13] = target: T3, Staphylocoagulase fragment SC(1-246), …; assay: competitive displacement of BODIPY-labeled staphylocoagulase from GMA-2105 in solution, fluorescence
SC-(1-325), unlabeled = target: T5, SC-(1-325), unlabeled (Staphylococcus aureus, UniProt P17855 27-351); assay: Western blot of recombinant proteins; by the text, primary antibody at 10 µg/mL, HRP anti-mouse IgG, chemiluminescence
T5 sequence: T2 sequence with C7S
Description: The elaborated proteins were transferred to PVDF membrane for western blot analysis to probe the specificity and cross-reactivity of the monoclonal antibodies targeting the critical N-termini of either SC or vWbp. […] Following primary antibody treatment, blots were washed and probed with horseradish peroxidase-labeled rabbit anti-mouse IgG that lacked the constant region and then imaged for chemiluminescence substrate oxidation using a Fuji-Films LAS1000. The blot was stripped between primary antibody challenges. […] To accomplish this, the blot was probed with the both the SC and vWbp neutralizing antibodies and then stained for total mouse IgG content using an anti-mouse IgG (H+L)-FITC polyclonal antibody.

[14] = target: T2, BODIPY-labeled staphylocoagulase SC …; assay: fluorescence titration of BODIPY-labeled SC(1-325) with chimeric GMA-2105

B1: GMA-2500 murine anti-vWbp monoclonal antibody (antibody, V domains shown)
VH: EVQLQQSGTVLARPGASVKMSCKTSGYSFTSYWIHWVKQRPGQGLEWIGAISPGNSDTNYNQNFKGKAKLTAVTSASTAYMELSSLTTEDSAVYYCATGSHYWGQGTTLSVSS
VL: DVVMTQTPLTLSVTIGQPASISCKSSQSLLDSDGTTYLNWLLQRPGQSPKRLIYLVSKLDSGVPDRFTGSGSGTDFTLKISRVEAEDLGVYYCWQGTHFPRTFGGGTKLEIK
notes: also called 10C9.D1.B6
Does B1 bind [1]?
Result: binds

What about the “EC50 (read off the curve)” value [2] of the same binder?
Its value is about 0.1 µg/mL.

And the “EC50 (read off the curve)” value (vWbp-(1-263) [3])?
Its value is about 0.1 µg/mL.

And the “EC50 (read off the curve)” value (vWbp-(1-263) [4])?
The value was about 0.1 µg/mL.

B2: GMA-2105 murine anti-staphylocoagulase monoclonal antibody (antibody, V domains shown)
VH: EVKLEESGGGLVQPGGSMKLSCAASGFTFSDAWMDWVRQSPEKGLEWVAEIRTKANNHATYYAESVKGRFTISRDDSKSSVYLQMNSLRAEDTGIYYCTNVYYGNNDVKDYWGQGTSVTVSP
VL: DIVMTQSQKFMSTSVGDRVSVTCKASQNVDIYVAWYQQKPGQSPKALIYSASYRFSGVPDRFTGSGSGTDFTLSISNVQSEDLAEYFCQQYNNYPYTFGGGTKLEIKR
notes: also called 2A1.5H4.B7; anti-SC Ab
What does the source list for B2?
Kd [5]: 0.99 nM; Kd [6]: 0.71 nM; Stoichiometry (mol mAb / mol wild type) [6]: 1.2 mol mAb / mol wild type; binding result [7]: binds; binding result (Mutated Peptide Ala 8): binds; binding result (Mutated Peptide Ala 9): binds; stoichiometry [8]: 2 mol staphylocoagulase/mol GMA-2105; stoichiometry [9]: 1.6 mol BODIPY-SC/mol GMA-2105; binding result (vWbp-(1-474)): no binding (tested: 10 µg/mL (from the text)); binding result (vWbp-(1-263) [10]): no binding (tested: 10 µg/mL (from the text)); Kd [11]: 1.09 nM; Stoichiometry (mol mAb / mol probe) [11]: 0.99 mol mAb / mol probe; Kd [12]: 2 nM; Kd [13]: 4 nM; binding result (SC-(1-325), unlabeled): binds

B3: Chimeric GMA-2105 (mouse variable regions on human constant regions) (antibody, V domains shown)
VH: B2 VH
VL: B2 VL
What does the source list for B3?
Kd [6]: 0.75 nM; Stoichiometry (mol mAb / mol wild type) [6]: 1.35 mol mAb / mol wild type; stoichiometry [14]: 2 mol staphylocoagulase/mol chimeric antibody; Kd [11]: 0.79 nM; Stoichiometry (mol mAb / mol probe) [11]: 0.94 mol mAb / mol probe
